Experiment: soluble on expression in E. coli; label from the status in PepcDB or PDB records
With “MSLALITLRQRNNKVEVRVFDTGIGIDADKQKAIFTDFYRIQDSDEAGVGLGLGVVRRLTEQMHATIDVSSVKRKGSCFILNMRIGSPVTESNVTFNKVKQTLSGLNVLCVDDKNENLDALETLLTRWEVNVVMANTYESALTLLASNKHPSPDVLLIDYQLDKDQDGLSLIKDIKAQVGKHIPSAIVTALQDQELKETCLSQGIQFLNKPLKPAKLRALLQSLAKQKSEGHHHHHH” the “soluble on expression in E. coli” value was “not soluble”.
In the case of “MSLANLNIFGQEVGADVEGWTTRAFPEKVVLKGNTCRLEPLDRERHGSELFSAYSEAGQKLWTYLPAGPFTNLEEYLEFIKELNETKDTVPFAIINKETERAVGTLCLIRIDEANGSLEVGYVVFSPELQKTIIATEAQFLLMKYVFDDLQYRRYEWKCDSLNGPSRRAAMRLGFKYEGTFRQVVVYKGRTRDTQWFSIIDKEWLRIRKTFEEWLDKTNFENGKQKRGIAAIRESLSNEGHHHHHH”, the “soluble on expression in E. coli” value is reported as “soluble”.
In the case of “MSLAPIAQAQHELSISRLIDAPPAKVFRAWTEPQWLMQWWGPHGMTTPECEMQLWAGGLFRTLMRAPDGCEYPNQGVFLEIAAPRRLVFTDAFGPGWVPSDKAFMTAVISFDEEQGKTRYTARAWHWNATDCRAHEEMGFHQGWGESLDRLVEVVTQRMPDLEHHHHHH”, the “soluble on expression in E. coli” value is reported as “soluble”.
For “MSLAPPEGNPAAGKVAAGLCRTCHGLNGFARIPIAPHIGGEHPSYIRHQLEAFRSGTRQHEIMSVVAASLSDAQIADLSAWFAMQKIHVALKPGVDPHAAPEACALCHGADGVAVLEDAPNLAGENSVYLETQLKAFRTGKRTHEIMSPIAAELTDAEIRAAADWYAAVQLEIDEGHHHHHH”, the “soluble on expression in E. coli” value was “not soluble”.
In the case of “MSLAPRPRILICEDDPDIARLLNLMLEKGGFDSDMVHSAAQALEQVARRPYAAMTVDLNLPDQDGVSLIRALRRDSRTRDLAIVVVSANAREGELEFNSQPLAVSTWLEKPIDENLLILSLHRAIDNMAEGKEGYLTITTDPNSSSVDKLAAALEHHHHHH”, the “soluble on expression in E. coli” value is reported as “soluble”.
With “MSLAQDVVVGVSWSNFQEERWKTDEAAIKAELESKGAKYISADAQSSSAKQLSDVESLIAQGATALIILAQDAQAIGPAVQAAADEGIPVVGYDRLIEDSRAFYLTFDNVEVGRMQARAVLEAAPSGRYVMIKGSPTDPNADFLRGGQQEVLQAAIDKGDITIVGEAYTDGWLPANAQRNMEQILTATDNGVDAVVASNDGTAGGVVAALTAQGMEGLPVSGQDGDHAALNRVAKGTQTVSVWKDARDLGRAAARIAVSLAEGTQMNAIGGADDWTSPGGTKMNAMFLEPLPITKDNLSVVVDAGWITQETLCQGVTNGPAPCNEGHHHHHH” the “soluble on expression in E. coli” value was “soluble”.
With “MSLAQFYSAKRRVTTRQIITVKVNDLDSFGQGVARHNGKALFIPGLLPEESAEVIITEDKKQFARARVSRRLNDSPERETPRCPHFGVCGGCQQQHVSIALQQRSKSAALARLMKHEVNDIIAGAPWGYRRRARLSLNCPPDKPLQMGFRKAGSSDIVNVEQCPVLAPQLAALLPRIRACLASLHGTRHLGHVELVQAGSGTLMILRHTAPLSAADKEKLERFSHSEGLSLFLAPFSEILETVSGEAPWYDSHGLRLAFSPRDFIQVNEAVNQQMVARALEWLDVRAEDRVLDLFCGMGNFTLPLATRAASVIGVEGVPALVEKGRENAIRNGLHNVTFFHENLEEDVTKQPWAKNGFDKVLLDPARAGATGVMRHIIKLKPIRIVYVSCNPATLARDSEALVNAGYEVTRLAMLDMFPHTGHLESMVLFERMEGHHHHHH” the “soluble on expression in E. coli” value was “soluble”.
In the case of “MSLAQNMTIKDDFIHAFSSNANEPDWFLDIRRNAFKAYGELDLPFVDKTKITRWNFTKFETFIPFKEGVTNETLPEKVANLVDLDNKEANFYVQMDERPARLQLQQELVDQGVIFTDIISAVKNHPELVKKYFMKDAVQVNEHKLTAFHAALVNGGIFLYVPKNVEVKSPIQAVFVQDKAESPLVNHVLLVADDNSAVTYVENYVTVNNEPKGIVSIVEEVIAEKNARITFGGVDNLASEVTAYVNRRGHIGTDSQIEWALGLMNDGDTINENVTNLMGDGSSADVKTVTVGRGKQTQNVTTRVTHYGKASNGTILSHGVMKERATTIFNGIGHIKHGASKSDAQQESRVLMLSPEARGDANPILLIDENDVVAGHAASVGRVDPLQLFYLMSRGISQKEAERLVIHGFLDPVVRQLPIESVKTMLREVIEGKVREGHHHHHH”, the “soluble on expression in E. coli” value is reported as “soluble”.

— the DeepSol protein solubility set
